Reference: US20030212253A1 (AMERICAN NATIONAL RED CROSS, published 2003)
Each block holds one molecule with its values, some of them ahead of it. Non-standard residues stand in square brackets, D forms with d. No end group written: not given here. 2Nal = N[C@@H](Cc1ccc2ccccc2c1)C(=O)O; Ahx = NCCCCCC(=O)O

Columns and labels:
[1] = target: fibrinogen (human plasma) (human) (UniProt P02671); assay: affinity chromatography of 5 ml plasma on 0.8 ml peptide resin column
[2] = target: fibrinogen (human plasma) (human) (UniProt P02671); assay: affinity chromatography of plasma on peptide resin, ligand density 0.67-0.94 mmol/g resin
[3] = target: fibrinogen (human plasma) (human) (UniProt P02671); assay: affinity chromatography of plasma on peptide resin, Evaluation 1, load 51 mg; nephelometric fibrinogen antigen
[4] = target: fibrinogen (human plasma) (human) (UniProt P02671); assay: affinity chromatography of plasma on peptide resin, Evaluation 2, load 51 mg; nephelometric fibrinogen antigen
[5] = target: fibrinogen (human plasma) (human) (UniProt P02671); assay: affinity chromatography of plasma on peptide resin, Evaluation 1; nephelometric fibrinogen antigen
[6] = target: fibrinogen (human plasma) (human) (UniProt P02671); assay: affinity chromatography of plasma on peptide resin, Evaluation 2; nephelometric fibrinogen antigen
[7] = target: vWF/fVIII complex (human plasma) (human) (UniProt P04275); assay: batch binding of pooled human plasma to peptide resin, then column elution; load 8.46 IU; fVIII coagulation assay
[8] = target: vWF/fVIII complex (human plasma) (human) (UniProt P04275); assay: batch binding of 20 ml pooled human plasma to 0.8 ml peptide resin, then column elution; load 21.4 IU; fVIII chromogenic assay
[9] = target: vWF/fVIII complex (human plasma) (human) (UniProt P04275); assay: batch binding of pooled human plasma to peptide resin, then column elution; fVIII coagulation assay
[10] = target: vWF/fVIII complex (human plasma) (human) (UniProt P04275); assay: batch binding of pooled human plasma to peptide resin, then column elution; fVIII chromogenic assay
albumin (human plasma) = target: T1, albumin (human plasma) (human, UniProt P02768 25-609); assay: affinity chromatography of fibrinogen- and Apo-A1-depleted plasma on peptide resin, 0.020 M sodium citrate; nephelometry
T1 construct: mature
Procedure: Fibrinogen and Apo-A1 lipoprotein-depleted plasma (prepared in Example 5) was loaded at a linear velocity of 30 cm/hour (0.4 ml/min; RT=5.1) onto 2.0 ml column (CF=0.785 cm²) that had been equilibrated with 0.14 M NaCl, 0.020 M sodium citrate, pH 7.0 (EQ buffer). After the column was washed with EQ buffer and 2.0 M NaCl, 0.020 M sodium citrate, pH 6.0, to baseline, the API protein was eluted with 2.0 M NaCl, 1% Tween 20, 0.020 M sodium citrate, pH 6.0. The column was regenerated with 2.0 M guanidine-HCl, 2% Sarkosyl and 2% acetic acid and stored in 20% methanol. […] Not all of the API was quantitatively eluted, but could be eluted using 2M guanidine. Purification of API protein to approximately 70% purity was accomplished with ligand HFVAPH (SEQ ID NO: 46) (isolated from an L-Library).

dynamic resin capacity [1]: 5 to 8 mg
Molecule: HWQ (SEQ ID NO: 7) peptide attached to a chromatography resin

binding result (albumin (human plasma)): no binding
Molecule: HFVAPH (also: immobilised on resin via C-terminus, Immobilised on chromatography resin) [L-HFVAPH (SEQ ID NO: 46) peptide ligand displayed on resin]

Continued, molecule first:

Molecule: [dA]RQFDF[Ahx] (also: D- prefix in name, which residues are D is not settled) [D-ARQFDF (SEQ ID NO: 20) peptide displayed on ToyoPearl AF-Amino 650 M resin]
dynamic resin capacity [2]: 6 to 8 g/L of resin
total fibrinogen in elution [3]: 46 mg
total fibrinogen in elution [4]: 54 mg
fibrinogen in flow thru + post wash [5]: < 0.15 mg/mL
recovery of fibrinogen in elution (%) [5]: 91%
fibrinogen in flow thru + post wash [6]: < 0.15 mg/mL
recovery of fibrinogen in elution (%) [6]: 100%

Molecule: EAD[2Nal]ED (not fully specified (C-terminus)) [D-EADna2′ED (SEQ ID NO: 66) resin]
total FVIII in flow-through (IU), coagulation assay [7]: 1.6 IU
total FVIII in flow-through (IU), chromogenic assay [8]: 1.6 IU
FVIII recovery in elution 1, 0.75 M NaCl (%), coagulation assay [9]: 46%
FVIII recovery in elution 2, 1.0 M NaCl (%), coagulation assay [9]: 0%
FVIII recovery in flow-through (%), coagulation assay [9]: 18.9%
FVIII recovery in wash, 0.5 M NaCl (%), coagulation assay [9]: 0%
total FVIII in elution 1, 0.75 M NaCl (IU), coagulation assay [9]: 3.9 IU
total FVIII in elution 2, 1.0 M NaCl (IU), coagulation assay [9]: 0 IU
total FVIII in wash, 0.5 M NaCl (IU), coagulation assay [9]: 0 IU
FVIII recovery in elution 1, 0.75 M NaCl (%), chromogenic assay [10]: 21.5%
FVIII recovery in elution 2, 1.0 M NaCl (%), chromogenic assay [10]: 0%
FVIII recovery in flow-through (%), chromogenic assay [10]: 7.5%
FVIII recovery in wash, 0.5 M NaCl (%), chromogenic assay [10]: 5.6%
total FVIII in elution 1, 0.75 M NaCl (IU), chromogenic assay [10]: 4.6 IU
total FVIII in elution 2, 1.0 M NaCl (IU), chromogenic assay [10]: 0 IU
total FVIII in wash, 0.5 M NaCl (IU), chromogenic assay [10]: 1.2 IU
